In US20140086935A1 (Bayer, published 2014):

Columns and labels:
[1] = biological target: T1, human TIMP-1 (human, UniProt P01033 24-207); assay: cell-based or functional assay
[2] = biological target: T1, human TIMP-1; assay: SPR (BIAcore), monovalent Fab
Procedure: (§1) For affinity determination, monomeric fractions of affinity and SEC purified Fab fragments or purified IgG1 molecules were used. All experiments were conducted in HBS buffer at a flow rate of 20 μl/min at 25° C. on a BIAcore™ instrument. Antigens in 100 mM sodium acetate pH 5.0 were coupled to a CM 5 sensor chip using standard EDC-NHS coupling chemistry. […] All sensograms were fitted globally using BIA evaluation software. For monovalent Fab fragments a monovalent fit (Langmuir binding) and for IgGs a bivalent fit was applied.

[3] = biological target: T1, human TIMP-1; assay: SPR (BIAcore), monovalent Fab; against parental clone MS-BW-3 (best Fab and parent named in paragraph 170)
[4] = biological target: T1, human TIMP-1; assay: SPR (BIAcore); against the parental Fab (MS-BW-44-6, 0.6 nM; implied)
Procedure: as §1

[5] = biological target: T1, human TIMP-1; assay: SPR (BIAcore), TIMP-1 coupled to chip, monovalent Fab
Procedure: as §1

[6] = biological target: T1, human TIMP-1; assay: cell-based or functional assay; remark: listed apart in the source
[7] = biological target: T1, human TIMP-1; assay: SPR (BIAcore); against the parental Fab (MS-BW-44-2, 0.5 nM; implied)
Procedure: as §1

[8] = biological target: T2, rat TIMP-1 (rat, UniProt P30120 24-217); assay: cell-based or functional assay
[9] = biological target: T2, rat TIMP-1; assay: SPR (BIAcore), rat TIMP-1 on chip (500 RU), IgG1, bivalent fit (avidity)
Procedure: as §1
Anti-rat TIMP-1 clone MS-BW-14 was chosen for the first in vivo study, and IgG₁ protein was produced by transient expression. Anti-human TIMP-1 clone MS-BW-3 was selected as a negative control IgG₁ and was also produced by transient expression. Purified IgG₁ proteins MS-BW-14 and MS-BW-3 were subjected to quality control in BIAcore™ and rat TIMP-1/rat MMP-13 assays. […] This increase in affinity for the IgG₁ is due to the avidity effects caused by binding of bivalent IgG₁ to immobilized rat TIMP-1 protein on the BIAcore™ chip.

T2 sequence (P30120 24-217 limits assumed): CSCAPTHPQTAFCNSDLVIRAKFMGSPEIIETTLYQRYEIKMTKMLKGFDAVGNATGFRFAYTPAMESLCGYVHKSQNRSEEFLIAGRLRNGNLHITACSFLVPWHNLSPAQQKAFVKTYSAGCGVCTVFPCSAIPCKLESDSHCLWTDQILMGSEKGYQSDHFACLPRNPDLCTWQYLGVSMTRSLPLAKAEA

Binder	IC50 in human protease assay (modified, decreased TIMP-1 and MMP-1) [1]	Kd [2]	improvement factor of monovalent affinity [3]	improvement factor (affinity) [4]	Kd [5]	improvement factor of activity in human TIMP-1/MMP-1 assay (against parental clone MS-BW-3) [6]	improvement factor (affinity) [7]	improvement factor with respect to the IC50 in human TIMP-1/MMP-1 assay (against the Fab of the previous maturation cycle, MS-BW-44-2) [6]	IC50 (50 % reversal of the inhibition of rat MMP-13 by rat TIMP-1, fluorogenic peptide substrate assay) [8]	Kd [9]
MS-BW-44-6-1 (Fab, V domains shown, Fab from LCDR3 optimization of MS-BW-44-6) VH: QVQLVESGGGLVQPGGSLRLSCAASGFTFNSYAMSWVRQAPGKGLEWVSVISGNGSNTYYADSVKGRFTISRDNSKNTLYLQMNSLRAEDTAVYYCARFLDIWGQGTLVTVSS VL: DIALTQPASVSGSPGQSITISCTGTSSDVGGYNYVSWYQQHPGKAPKLMIYDVSNRPSGVSNRFSGSKSGNTASLTISGLQAEDEADYYCQSYDFIRFMVFGGGTKLTVLG	0.2 nM	0.15 nM	87 fold	4 fold	0.2 nM	55 fold	–	–	–	–
MS-BW-44-2-4 (Fab, V domains shown, Fab from HCDR3 optimization of MS-BW-44-2) VH: QVQLVESGGGLVQPGGSLRLSCAASGFTFSSYAMSWVRQAPGKGLEWVSGISGNGVLIFYADSVKGRFTISRDNSKNTLYLQMNSLRAEDTAVYYCARGLMDYWGQGTLVTVSS VL: DIALTQPASVSGSPGQSITISCTGTSSDVGGYNYVSWYQQHPGKAPKLMIYDVSNRPSGVSNRFSGSKSGNTASLTISGLQAEDEADYYCQSYDFVRFMVFGGGTKLTVLG	0.2 nM	–	–	–	0.2 nM	–	2.5 fold	2 fold	–	–
MS-BW-14 IgG1 (antibody, V domains shown, Variable regions of Fab MS-BW-14 cloned into human IgG1 vectors; also called IgG1 protein MS-BW-14; copies: 2 + 2) VH: QVQLVQSGAEVKKPGSSVKVSCKASGGTFSSYAISWVRQAPGQGLEWMGGIIPIFGTANYAQKFQGRVTITADESTSTAYMELSSLRSEDTAVYYCARWSDQSYHYYWHPYFDVWGQGTLVTVSS VL: DIVLTQPPSVSGAPGQRVTISCSGSSSNIGSNYVSWYQQLPGTAPKLLIYDNNQRPSGVPDRFSGSKSGTSASLAITGLQSEDEADYYCQSWDLEPYVFGGGTKLTVL	–	–	–	–	–	–	–	–	~7 nM	0.2 nM
